The record followed here is patent US10357539B2, “Use of peptides that block metadherin-SND1 interaction as treatment for cancer” (THE TRUSTEES OF PRINCETON UNIVERSITY, priority 2014, dated 2019).

Where a chain is given by its changes, count along the chain named. Numbers in names are those of the source.

The target in one assay is T1, MTDH-SND1 interaction (Homo sapiens, UniProt Q7KZF4).
T1 construct: Full-length HA-tagged SND1 was co-expressed with full-length Myc-tagged wild-type (WT) or mutant MTDH in HEK293T cells; expressed in transfected cells; host or cells: 293T
T1 sequence (Q7KZF4 1-910): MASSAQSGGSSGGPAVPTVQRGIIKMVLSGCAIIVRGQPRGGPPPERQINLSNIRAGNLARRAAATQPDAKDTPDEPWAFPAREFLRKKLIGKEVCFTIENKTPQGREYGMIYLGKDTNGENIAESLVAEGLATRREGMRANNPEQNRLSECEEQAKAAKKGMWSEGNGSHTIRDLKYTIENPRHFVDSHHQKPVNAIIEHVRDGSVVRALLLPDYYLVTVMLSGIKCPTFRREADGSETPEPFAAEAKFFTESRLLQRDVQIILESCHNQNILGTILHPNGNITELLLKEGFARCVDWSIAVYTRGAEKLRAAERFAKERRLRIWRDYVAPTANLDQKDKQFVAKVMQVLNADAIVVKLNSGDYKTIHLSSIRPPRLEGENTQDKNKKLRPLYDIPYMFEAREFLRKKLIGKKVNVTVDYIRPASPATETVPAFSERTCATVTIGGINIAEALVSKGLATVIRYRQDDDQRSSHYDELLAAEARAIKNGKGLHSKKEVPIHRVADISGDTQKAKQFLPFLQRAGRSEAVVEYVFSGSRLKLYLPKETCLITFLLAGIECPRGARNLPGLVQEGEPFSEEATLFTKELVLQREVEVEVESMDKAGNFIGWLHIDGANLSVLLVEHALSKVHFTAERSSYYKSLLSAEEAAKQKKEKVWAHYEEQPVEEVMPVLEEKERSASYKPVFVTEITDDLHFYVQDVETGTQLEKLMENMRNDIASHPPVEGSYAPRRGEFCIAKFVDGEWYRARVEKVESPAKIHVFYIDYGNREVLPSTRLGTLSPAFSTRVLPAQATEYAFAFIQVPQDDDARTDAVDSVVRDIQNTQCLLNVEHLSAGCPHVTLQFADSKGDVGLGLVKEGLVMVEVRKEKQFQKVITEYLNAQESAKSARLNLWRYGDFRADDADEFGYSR
The experiment in a line: Immunoprecipitation assay: elution or co-incubation with MTDH peptides, western blot. It counts as biochemical. To be noted: 50 uM of peptides; IP of HA-SND1 from 293T (HA-SND1 + MYC-MTDH) and of endogenous SND1 from MDA-MB-231. On the procedure: 293T cells co-transfected with HA-SND1 and MYC-MTDH. After 48 hr cells were collected and subjected to IP assay. (FIG. 26A, FIG. 26B) Cell lysate was incubated with anti-HA antibody or IgG overnight followed by 2 hr incubation with Protein A/G beads to pull down HA-SND1 protein. The beads was washed with lysis buffer and split into 5 fractions. Each fraction was eluted with buffer or indicated peptides for 30 min. The elution fractions and beads were collected for WB. (FIG. 26C, FIG. 26D) Cell lyaste was split into 6 fractions, one of them was incubated with IgG and the rest were incubated with anti-HA antibody plus either buffer or indicated peptides. After 24 hr, the lysate was incubated with Protein A/G beads then the beads were washed in wash buffer.
Breast cancer cells MDA-MB231 were collected and subjected to IP assay. (FIG. 27A) Cell lysate was incubated with anti-SND1 antibody or IgG overnight followed by 2 hr incubation with Protein A/G beads to pull down endogenous SND1 protein. The beads were washed with lysis buffer and split into 5 fractions. Each fraction was eluted with buffer or indicated peptides for 30 min. The elution fractions and beads were collected for WB. (FIG. 27B) Cell lyaste was split into 5 fractions, and incubated with anti-SND1 antibody plus either buffer or indicated peptides. After 24 hr, the lysate was incubated with Protein A/G beads then the beads were washed in wash buffer.
293 T cells were co-transfected with HA-SND1 and MYC-MTDH. After 48 hours, the cells were collected and subject to immunoprecipitation assay. Cell lysate was incubated with anti-HA antibody or IgG overnight followed by a two hour incubation with Protein A/G beads to pull down HA-SND1 protein. The beads were washed with lysis buffer and split into five fractions. Each fraction was eluted with buffer or indicated peptides (i.e., Peptide—wt (PNSDWNAPAEEWGNW, SEQ ID NO: 16); Peptide-394A (PNSDANAPAEEWGNW, SEQ ID NO: 17); Peptide-401A (PNSDWNAPAEEAGNW, SEQ ID NO: 18) and Peptide-MT (PNSDANAPAEEAGNW, SEQ ID NO: 19) for 30 minutes.
The elution fractions and beads were collected for western blot. (FIGS. 26C and 26D) Cell lyaste was split into 6 fractions. One of the fractions was incubated with IgG and the rest were incubated with anti-HA antibody plus either buffer or indicated peptides. After 24 hours, the lysate was incubated with Protein A/G beads then the beads was washed followed by wash buffer. 50 uM of peptides was used in all the assays.
The interaction interruption effects was confirmed by endogenous immunoprecipitation (IP) of a breast cancer cell line. Briefly, cell lysates from the breast cancer cell line MDA-MB-231 were collected and subjected to IP assay. […]
(In general: In western blotting, separated proteins are transferred to a membrane and probed.)

The target of the next assay is T2, SND1 (Mus musculus, UniProt Q78PY7).
T2 construct: endogenous in cells; host or cells: PyMT;Mtdh−/− (A9) or PyMT;Mtdh+/+ (A13) mouse mammary epithelial/tumor cells
T2 sequence (Q78PY7 1-910): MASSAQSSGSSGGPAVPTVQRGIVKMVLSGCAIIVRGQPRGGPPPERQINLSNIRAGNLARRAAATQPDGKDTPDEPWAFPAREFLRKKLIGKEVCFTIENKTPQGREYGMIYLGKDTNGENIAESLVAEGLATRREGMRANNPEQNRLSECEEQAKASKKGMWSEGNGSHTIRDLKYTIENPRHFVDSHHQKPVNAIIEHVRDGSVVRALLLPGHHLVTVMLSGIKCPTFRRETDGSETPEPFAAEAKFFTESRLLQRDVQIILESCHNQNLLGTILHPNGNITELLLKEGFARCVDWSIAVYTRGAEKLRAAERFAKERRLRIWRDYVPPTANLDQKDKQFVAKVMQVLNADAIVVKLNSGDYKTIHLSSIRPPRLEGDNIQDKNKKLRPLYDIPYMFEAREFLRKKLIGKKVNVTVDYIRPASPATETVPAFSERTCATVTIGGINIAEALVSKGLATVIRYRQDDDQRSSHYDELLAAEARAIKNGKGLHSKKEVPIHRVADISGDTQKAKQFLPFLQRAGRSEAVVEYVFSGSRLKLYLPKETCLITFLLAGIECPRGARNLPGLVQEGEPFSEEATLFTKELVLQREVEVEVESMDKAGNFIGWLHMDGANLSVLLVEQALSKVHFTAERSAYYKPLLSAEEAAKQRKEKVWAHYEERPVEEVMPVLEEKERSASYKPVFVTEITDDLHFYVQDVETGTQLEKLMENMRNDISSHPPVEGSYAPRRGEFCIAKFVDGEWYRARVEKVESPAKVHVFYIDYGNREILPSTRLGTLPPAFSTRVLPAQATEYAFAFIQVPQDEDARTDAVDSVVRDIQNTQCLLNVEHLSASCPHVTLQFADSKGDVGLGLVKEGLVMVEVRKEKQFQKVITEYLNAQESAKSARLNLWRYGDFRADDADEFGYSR
Put plainly: Anti-MTDH immunoprecipitation from PyMT;Mtdh−/− tumor cells reconstituted with murine MTDH. It counts as cell-based. To be noted: stably expressed in PyMT;Mtdh−/− tumor cells. The method, then: (FIG. 8A, FIG. 8E) Lysates from PyMT;Mtdh−/− MECs reconstituted with vector control, WT or mutant murine MTDH were immunoprecipitated with anti-MTDH antibody and immunoblotted for indicated proteins. (FIG. 8B, FIG. 8F) Mammosphere assays were performed with PyMT;Mtdh−/− pMECs reconstituted with indicated Mtdh constructs. (FIG. 8C, FIG. 8D, FIG. 8G, FIG. 8H) In vivo tumor formation (FIG. 8C, FIG. 8G for tumor incidence; FIG. 8D, FIG. 8H for tumor volumes) were performed at limiting numbers using PyMT;Mtdh−/− pMECs reconstituted with indicated WT or mutant MTDH. *Note: mouse W391D MTDH corresponds to human W394D MTDH; and mouse W398D MTDH corresponds to human W401D MTDH. Statistics: (FIG. 8B, […]) Student's t-test. (FIG. 8C, FIG. 8G) Limiting dilution analysis. (FIG. 8D, FIG. 8H) Mann-Whitney test. Data represent mean±SEM. ***p<0.001, **p<0.01, *p<0.05.
(FIG. 23A) Lysates from PyMT;Mtdh−/− tumor cells reconstituted with vector control, WT or mutant murine MTDH were immunoprecipitated with anti-MTDH antibody and immunoblotted for indicated proteins. Note all amino acid annotations are based on human MTDH. W394 and W401 of human MTDH correspond to W391 and W398 in murine MTDH, respectively. (FIG. 23B) Mammosphere assays were performed with PyMT;Mtdh−/− tumor cells reconstituted with indicated MTDH constructs. (FIG. 23C-E) In vivo tumor formation (FIG. 23C for tumor incidence; FIG. 23D, FIG. 23E for tumor volumes) were performed at limiting numbers using PyMT;Mtdh−/− tumor cells reconstituted with indicated WT or mutant MTDH. Statistics: (FIG. 23B) Student's t-test. Data represent mean±SEM. (FIG. 23C) Limiting dilution analysis. (FIG. 23D, FIG. 23E) Mann-Whitney test. **p<0.01, *p<0.05.
Immunoprecipitation and western blot For immunoprecipitation (IP) experiments, cultured cells were washed in cold PBS and lysed in lysis buffer (20 mM Tris pH 7.4, 0.15 M NaCl, 1 mM EDTA, 1 mM EGTA, 1% Tx-100, 0.0025 M Na2P2O7, 1 mM α-glycerolphosphate, 1 mM Na3VO4, and 1 mM NaF) with an EDTA-free protease inhibitor mixture (Roche Applied Science) and PMSF. Cell lysates were then incubated on ice for 10 min, centrifuged, and precleared by incubating with protein A/G beads (Santa Cruz Biotechnology) for 1 h at 4° C. For IP bead preparation, 30 μl of protein A/G beads were incubated with 5 μg of antibodies for 2 h at 4° C. IPs were carried out for overnight at 4° C., and beads were centrifuged, washed and subsequently boiled for 5 min in SDS protein loading buffer to elute bound protein. IP lysates were subjected to western blotting with indicated antibodies. […]

Regarding “PNSDWNAPAEEAGNW (listed as Homo sapiens)”, the “block of MTDH-SND1 interaction by peptide” value with MTDH-SND1 interaction was “reduced the effectiveness of the wild type peptide by half”.

B1: murine TPM1: murine Mtdh triple mutant D386R, D390R, W391D (protein, UniProt Q80WJ7 1-579, looked up, variant D386R D390R W391D)
Protein LYRIC: MAARSWQDELAQQAEEGSARLRELLSVGLGFLRTELGLDLGLEPKRYPGWVILVGTGALGLLLLFLLGYGWAAACAGARKKRRSPPRKREEAAPPTPAPDDLAQLKNLRSEEQKKKNRKKLPEKPKPNGRTVEVPEDEVVRNPRSITAKQAPETDKKNEKSKKNKKKSKSDAKAVQNSSRHDGKEVDEGAWETKISHREKRQQRKRDKVLTDSGSLDSTIPGIENIITVTTEQLTTASFPVGSKKNKGDSHLNVQVSNFKSGKGDSTLQVSSRLNENLTVNGGGWSEKSVKLSSQLSEEKWNSVPPASAGKRKTEPSAWTQDTGDTNANGKDWGRNWSDRSIFSGIGSTAEPVSQSTTSDYQWDVSRNQPYIDDEWSGLNGLSSARPSSRDNAPAEEWGNWVDEDRASLLKSQEPISNDQKVSDDDKEKGEGALPTGKSKKKKKKKKKQGEDNSHTQDTEDLEKDTREELPVNTSKARPKQEKACSLKTMSTSDPAEVLIKNSQPVKTLPPAISAEPSITLSKGDSDNSSSQVPPMLQDTDKPKSNAKQNSVPPSQTKSETNWESPKQIKKKKKARRET
B1: in the assay with SND1, the “interaction of murine MTDH mutants with SND1” value (“interaction … with SND1” below) is “lost the ability to interact with SND1”.

B2: murine TPM2: murine Mtdh triple mutant E396R, E397R, W398D (protein, UniProt Q80WJ7 1-579, looked up, variant E396R E397R W398D)
Protein LYRIC: B1 Protein LYRIC with R386D, R390D, D391W, E396R, E397R, W398D
Take B2: the “interaction … with SND1” value in the assay with SND1 was “lost the ability to interact with SND1”.

B3: murine W401A: murine MTDH mutant W398A, corresponding to human W401A (protein)
chain: B1 Protein LYRIC with R386D, R390D, D391W, W398A
On to B3, for which, in the assay with SND1, the “interaction … with SND1” value was “completely lost the ability to interact with SND1”.

B4: murine W394A: murine MTDH mutant W391A, corresponding to human W394A (protein)
chain: B1 Protein LYRIC with R386D, R390D, D391A
Regarding B4, the “interaction … with SND1” value with SND1 is “completely lost the ability to interact with SND1”.
